For this assay, the target named is mitochondrial ATP synthase (mouse (endogenous in MEFs)) (UniProt Q03265). The experiment in a line: native gel or EMSA.

On to “mitochondrial ATP synthase (from UniProt Q03265 44-553) (complex)”, for which the stoichiometry N was 2.

(Values after PMC3088644.)
